Laboratory results reported in PMC9976406, “ANGPTL2 binds MAG to efficiently enhance oligodendrocyte differentiation” (Cell & Bioscience, 2023).

How the values were obtained:
LILRB2 (Homo sapiens) = LILRB2 (Homo sapiens) (UniProt Q8N423); details: cited from earlier work
[1] = biological target: ANGPTL2-Flag (angiopoietin-like protein 2) (UniProt Q9UKU9); test: flow cytometry on cells; details: MAG constructs expressed on 293T cells; ANGPTL2 row of plots (representative plot; n = 3 in panel H); parent: 41.7
[2] = biological target: T1, murine MAG-ECD-Fc (extracellular domain of murine MAG fused with human Fc) (murine, UniProt P20917 20-516); test: BLI; Octet RED96/RED96e; MAG-hFc from conditioned medium loaded on AHC biosensors; purified ANGPTL2 at indicated doses in kinetics buffer; details: one partner purified
T1 construct: myelin-associated glycoprotein (MAG), murine, extracellular domain (ECD); also called mouse MAG-hFc; murine MAG-hFC; source: 293T, transfected, in conditioned medium
T1 sequence (looked up): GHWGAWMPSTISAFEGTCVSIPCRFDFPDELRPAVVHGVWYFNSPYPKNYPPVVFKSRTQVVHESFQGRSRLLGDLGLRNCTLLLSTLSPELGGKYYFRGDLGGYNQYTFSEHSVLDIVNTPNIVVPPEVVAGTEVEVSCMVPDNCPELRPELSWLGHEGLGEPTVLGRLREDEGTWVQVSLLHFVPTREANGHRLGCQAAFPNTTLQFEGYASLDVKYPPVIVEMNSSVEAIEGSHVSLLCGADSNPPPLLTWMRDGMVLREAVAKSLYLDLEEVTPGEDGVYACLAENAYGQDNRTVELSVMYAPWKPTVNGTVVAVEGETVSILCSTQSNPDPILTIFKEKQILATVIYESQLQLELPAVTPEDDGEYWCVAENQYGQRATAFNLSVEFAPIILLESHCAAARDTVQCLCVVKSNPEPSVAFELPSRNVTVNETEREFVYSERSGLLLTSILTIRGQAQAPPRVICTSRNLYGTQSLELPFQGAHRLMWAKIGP

[3] = biological target: T1, murine MAG-ECD-Fc (extracellular domain …); test: SPR; Biacore T200, CM5 chip; MAG-hFc from conditioned medium captured by pre-immobilised anti-hFc antibody; purified ANGPTL2 injected at indicated doses; details: one partner purified
[4] = biological target: human MAG-ECD-FC (extracellular domain of human MAG fused with human Fc) (human) (UniProt P20916); test: as above
[5] = biological target: human MAG-ECD-FC (extracellular domain of human MAG fused with human Fc) (human) (UniProt P20916); test: BLI; Octet RED96/RED96e; MAG-hFc from conditioned medium loaded on AHC biosensors; purified ANGPTL2 at indicated doses in kinetics buffer
[6] = biological target: T2, ANGPTL2-Flag (angiopoietin-like protein 2), Q9UKU9; test: flow cytometry on cells; details: chain shown with the change; MAG constructs expressed on 293T cells; ANGPTL2 row of plots (representative plot; n = 3 in panel H); parent: 41.7
T2 chain: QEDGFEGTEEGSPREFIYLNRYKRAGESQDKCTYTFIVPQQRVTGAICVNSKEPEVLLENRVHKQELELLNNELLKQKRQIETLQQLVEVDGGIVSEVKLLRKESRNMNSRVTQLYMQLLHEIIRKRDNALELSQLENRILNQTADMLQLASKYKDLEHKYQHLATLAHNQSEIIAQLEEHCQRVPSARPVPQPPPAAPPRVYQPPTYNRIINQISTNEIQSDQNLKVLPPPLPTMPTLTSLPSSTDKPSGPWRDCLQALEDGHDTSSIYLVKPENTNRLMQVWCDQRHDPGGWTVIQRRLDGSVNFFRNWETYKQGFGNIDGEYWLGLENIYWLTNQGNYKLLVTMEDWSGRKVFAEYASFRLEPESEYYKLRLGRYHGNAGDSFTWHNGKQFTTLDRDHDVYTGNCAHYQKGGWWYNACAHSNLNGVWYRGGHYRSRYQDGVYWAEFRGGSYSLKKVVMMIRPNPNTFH

Sequence of LILRB2 (Homo sapiens) (Q8N423 22-460): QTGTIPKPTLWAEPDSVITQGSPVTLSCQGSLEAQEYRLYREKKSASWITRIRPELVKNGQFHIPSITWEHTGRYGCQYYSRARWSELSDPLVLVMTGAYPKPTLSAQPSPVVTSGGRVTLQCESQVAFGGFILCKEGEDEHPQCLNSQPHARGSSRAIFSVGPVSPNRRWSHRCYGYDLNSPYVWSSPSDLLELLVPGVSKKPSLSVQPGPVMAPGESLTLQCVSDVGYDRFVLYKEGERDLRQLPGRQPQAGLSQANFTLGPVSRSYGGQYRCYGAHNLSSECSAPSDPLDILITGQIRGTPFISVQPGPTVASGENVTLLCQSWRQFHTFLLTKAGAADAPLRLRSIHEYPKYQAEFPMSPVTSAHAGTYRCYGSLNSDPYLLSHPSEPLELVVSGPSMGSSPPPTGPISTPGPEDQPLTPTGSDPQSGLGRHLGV

ANGPTL2 (from UniProt Q9UKU9)
Kd (LILRB2 (Homo sapiens)): 5.5 nM

human MAG (myelin-associated glycoprotein), full-length, fused with EGFP (N1-hMAG-EGFP) (from UniProt P20916) G389D; Y341A
response (% of EGFP+ cells binding ANGPTL2) [1]: 0.33

B1: ANGPTL2-Flag (angiopoietin-like protein 2) (ligand, UniProt Q9UKU9 23-493, looked up)
chain: T2 chain
notes: angiopoietin-like protein 2 (ANGPTL2), secreted into the conditioned medium of 293T cells; The same ANGPTL2-Flag was used on human and murine MAG; also called purified ANGPTL2 protein; source: 293T, transfected with CMV-ANGPTL2-Flag; conditioned medium collected after 48 h, or purified from it with M2 resin
Kd [2]: 16.4 nM
Kd [3]: 3.08 nM
Kd [4]: 6.47 nM
Kd [5]: 9.34 nM

B2: human MAG (myelin-associated glycoprotein), full-length, fused with EGFP (N1-hMAG-EGFP), P20916 G301D; Y303A (protein)
chain: GHWGAWMPSSISAFEGTCVSIPCRFDFPDELRPAVVHGVWYFNSPYPKNYPPVVFKSRTQVVHESFQGRSRLLGDLGLRNCTLLLSNVSPELGGKYYFRGDLGGYNQYTFSEHSVLDIVNTPNIVVPPEVVAGTEVEVSCMVPDNCPELRPELSWLGHEGLGEPAVLGRLREDEGTWVQVSLLHFVPTREANGHRLGCQASFPNTTLQFEGYASMDVKYPPVIVEMNSSVEAIEGSHVSLLCGADSNPPPLLTWMRDGTVLREAVAESLLLELEEVTPAEDDVAACLAENAYGQDNRTVGLSVMYAPWKPTVNGTMVAVEGETVSILCSTQSNPDPILTIFKEKQILSTVIYESELQLELPAVSPEDDGEYWCVAENQYGQRATAFNLSVEFAPVLLLESHCAAARDTVQCLCVVKSNPEPSVAFELPSRNVTVNESEREFVYSERSGLVLTSILTLRGQAQAPPRVICTARNLYGAKSLELPFQGAHRLMWAKIGPVGAVVAFAILIAIVCYITQTRRKKNVTESPSFSAGDNPPVLFSSDFRISGAPEKYESERRLGSERRLLGLRGEPPELDLSYSHSDLGKRPTKDSYTLTEELAEYAEIRVK
response (% of EGFP+ cells binding ANGPTL2) [6]: 0.61
